IntAct's records for PubMed 26551074

B1: Telomerase-associated protein of 45 kDa (Tetrahymena thermophila (strain SB210)), Q6JXI5 (parent)
chain: MEDNFELVFLKELPSLPDFSKVCFTGLILSFSNFPSSEQNQQKDVPHKIAIIQDSTGEAELFLDMYKFCQEEISVFKAITGIGVLKKKNIGAGQVCKIIVERFRIIHSADEEMLQYLLIQKYKLSKTLNEQQQIKQKEQQINQQKIDKVVQDKESKEHLLWKQQQIPQIKSNQENINTLKYKELIAGELMRITHKLLIQKLQQQQPANNNKQINEMDVESNELAEKKEVIIKIQEIAKDQQLYDTLSIQYQVDQKEQYYAKIAQSLEDFVSISALKMVSYIYPNISYQVSIGFFQNILDIATKTVKDRGALGCNYKYLKDKLTKALNLQQISYPLISESYISYLVHLFQDFNIIEIENEHKFYYKQAFQYDDS
partner: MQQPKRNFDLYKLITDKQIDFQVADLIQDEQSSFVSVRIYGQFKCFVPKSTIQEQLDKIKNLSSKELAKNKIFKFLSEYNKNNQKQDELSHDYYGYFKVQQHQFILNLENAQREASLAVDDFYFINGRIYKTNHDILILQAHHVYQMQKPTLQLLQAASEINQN
B2: Telomerase-associated protein of 19 kDa (Tetrahymena thermophila (strain SB210)), D2CVN7 (parent)
chain: B1 partner
partner: B1 chain

Variants of: B1
Conditions: with tap19_tetts TAP19, D2CVN7

Effect of a mutation on the interaction, disrupting interaction strength:
MEDNFELVFLKELPSLPDFSKVCFTGLILSFSNFPSSEQNQQKDVPHKIAIIQDSTGEAELFLDMYKFCQEEISVFKAITGIGVLKKKNIGAGQVCKIIVERFRIIHSADEEWLQYLLIQKYKLSKTLNEQQQIKQKEQQINQQKIDKVVQDKESKEHLLWKQQQIPQIKSNQENINTLKYKELIAGELMRITHKLLIQKLQQQQPANNNKQINEMDVESNELAEKKEVIIKIQEIAKDQQLYDTLSIQYQVDQKEQYYAKIAQSLEDFVSISALKMVSYIYPNISYQVSIGFFQNILDIATKTVKDRGALGCNYKYLKDKLTKALNLQQISYPLISESYISYLVHLFQDFNIIEIENEHKFYYKQAFQYDDS [M113W]
MEDNFELVFLKELPSLPDFSKVCFTGLILSFSNFPSSEQNQQKDVPHKIAIIQDSTGEAELFLDMYKFCQEEISVFKAITGIGVLKKKNIGAGQVCKIIVERFRIIHSRDEEMLQYLLIQKYKLSKTLNEQQQIKQKEQQINQQKIDKVVQDKESKEHLLWKQQQIPQIKSNQENINTLKYKELIAGELMRITHKLLIQKLQQQQPANNNKQINEMDVESNELAEKKEVIIKIQEIAKDQQLYDTLSIQYQVDQKEQYYAKIAQSLEDFVSISALKMVSYIYPNISYQVSIGFFQNILDIATKTVKDRGALGCNYKYLKDKLTKALNLQQISYPLISESYISYLVHLFQDFNIIEIENEHKFYYKQAFQYDDS [A109R]
MEDNFELVFLKELPSLPDFSKVCFTGLILSFSNFPSSEQNQQKDVPHKIAIIQDSTGEAELFLDMYKFCQEEISVFKAITGIGVLKKKNIGAGQVCKIIVERFRIIHSWDEEMLQYLLIQKYKLSKTLNEQQQIKQKEQQINQQKIDKVVQDKESKEHLLWKQQQIPQIKSNQENINTLKYKELIAGELMRITHKLLIQKLQQQQPANNNKQINEMDVESNELAEKKEVIIKIQEIAKDQQLYDTLSIQYQVDQKEQYYAKIAQSLEDFVSISALKMVSYIYPNISYQVSIGFFQNILDIATKTVKDRGALGCNYKYLKDKLTKALNLQQISYPLISESYISYLVHLFQDFNIIEIENEHKFYYKQAFQYDDS [A109W]
MEDNFELVFLKELPSLPDFSKVCFTGLILSFSNFPSSEQNQQKDVPHKIAIIQDSTGEAELFLDMYKFCQEEISVFKAITGIGVLKKKNIGAGQVCKIIVERFRIIHSADERMLQYLLIQKYKLSKTLNEQQQIKQKEQQINQQKIDKVVQDKESKEHLLWKQQQIPQIKSNQENINTLKYKELIAGELMRITHKLLIQKLQQQQPANNNKQINEMDVESNELAEKKEVIIKIQEIAKDQQLYDTLSIQYQVDQKEQYYAKIAQSLEDFVSISALKMVSYIYPNISYQVSIGFFQNILDIATKTVKDRGALGCNYKYLKDKLTKALNLQQISYPLISESYISYLVHLFQDFNIIEIENEHKFYYKQAFQYDDS [E112R]

Variants of: B2
Conditions: with tap45_tetts TAP45, Q6JXI5

Effect of a mutation on the interaction, disrupting interaction strength:
MQQPKRNFDLYKLITDKQIDFQVADLIQDEQSSFVSVRIYGQFKCFVPKSTIQEQLDKIKNLSSKELAKNKIFKFLSEYNKNNQKQDELSHDYYGYFKVQQHQFILNLENAQREASLAVDDFYFINGRIYKTNHDILILQAHHVYQMQKPTLQLLQAASERNQN [I161R]
MQQPKRNFDLYKLITDKQIDFQVADLIQDEQSSFVSVRIYGQFKCFVPKSTIQEQLDKIKNLSSKELAKNKIFKFLSEYNKNNQKQDELSHDYYGYFKVQQHQFILNLENAQREASLAVDDFYFINGRIYKTNHDILILQAHHVYQWQKPTLQLLQAASEINQN [M147W]
MQQPKRNFDLYKLITDKQIDFQVADLIQDEQSSFVSVRIYGQFKCFVPKSTIQEQLDKIKNLSSKELAKNKIFKFLSEYNKNNQKQDELSHDYYGYFKVQQHQFILNLENAQREASLAVDDFYFINGRIYKTNHDILILQAHHVAQMQKPTLQLLQAASEINQN [Y145A]
MQQPKRNFDLYKLITDKQIDFQVADLIQDEQSSFVSVEIYGQFKCFVPKSTIQEQLDKIKNLSSKELAKNKIFKFLSEYNKNNQKQDELSHDYYGYFKVQQHQFILNLENAQREASLAVDDFYFINGRIYKTNHDILILQAHHVYQMQKPTLQLLQAASEINQN [R38E]
